Results as given in article PMC6367419 (Nature Communications, 2019).

B1: EscN^29–446 (EPEC type III secretion system ATPase EscN, residues 29–446) (enzyme)
chain: NSSTRYEGKIINIGGTIIKARLPKARIGAFYKIEPSQRLAEVIAIDEDEVFLLPFEHVSGMYCGQWLSYQGDEFKIRVGDALLGRLIDGIGRPMESNIVAPYLPFERSLYAEPPDPLLRQVIDQPFILGVRAIDGLLTCGIGQRIGIFAGSGVGKSTLLGMICNGASADIIVLALIGERGREVNEFLALLPQSTLSKCVLVVTTSDRPALERMKAAFTATTIAEYFRDQGKNVLLMMDSVTRYARAARDVGLASGEPDVRGGFPPSVFSSLPKLLERAGPAPKGSITAIYTVLLESDNVNDPIGDEVRSILDGHIVLTRELAEENHFPAIDIGLSASRVMHNVVTSEHLRAAAECKKLIATYKNVELLIRIGEYTMGQDPEADKAIKNRKLIQNFIQQSTKDISSYEKTIESLFKVVA
notes: also called T3SS ATPase; chains NA to NF; source: E. coli BL21 (λDE3), purified (HisTrap HP, thrombin cleavage, second HisTrap HP, desalting)

Key:
[1] = molecular target: T1, EscN-EscO complex (EscN^29–446 with EscO^1–125) (Escherichia coli, UniProt B7UMA6); test: cryo-EM structure, […] Å; format: binding; parameters: EscN residues 29-446 plus full-length EscO (125 residues); N-terminal 6His tags cleaved with thrombin (tag residue 0 left on EscO); E. coli BL21(DE3); 6:1 complex; with Type III secretion system central stalk protein EscO; conditions: bound as transition state analogue Mg2+ADP-AlF3; pH 7.5; catalytic inter-subunit sites (four of six)
[2] = molecular target: EscN^29–446 (EPEC type III secretion system ATPase EscN, residues 29–446) (enteropathogenic Escherichia coli (EPEC) O127:H6 E2348/69) (UniProt B7UMA6)
[3] = molecular target: T1, EscN-EscO complex (EscN^29–446 with EscO^1–125); conditions: 3 mM ATP, 500 nM EscN, EscO 1:1 molar, 37 °C; pre-incubated with Mg2+ADP-AlF3, diluted out before assay
cryo-EM structure = molecular target: the molecule itself; test: cryo-EM structure
[4] = molecular target: B1; test: cryo-EM structure; conditions: both partners purified

Molecule: Nc1ncnc2c1ncn2[C@@H]1O[C@H](COP(=O)(O)OP(=O)(O)O)[C@@H](O)[C@H]1O [ADP]
- cryo-EM structure, 3.29 Å [1]: Sample density of the class two catalytic site ligands ADP, AlF3 (grey and cyan)

Molecule: EscO^1–125 Lys110Glu/Lys114Glu (natural protein)
- decrease in catalytic rate of EscN ATPase (EnzChek) with the EscO mutant against wild-type EscO [2]: 50%

Molecule: Nc1ncnc2c1ncn2[C@@H]1O[C@H](COP(=O)(O)OP(=O)(O)OP(=O)(O)O)[C@@H](O)[C@H]1O [ATP]
- EnzChek phosphate release ATPase assay [3]: found to further enhance EscN oligomerization and ATPase activity

Molecule: B1
- stoichiometry N (cryo-EM structure): 6

B2: EscO^1–125 (full-length EPEC central stalk protein EscO) (natural protein)
chain: MLDRILSIRKSRANRLRESMAKINSQIKEVDGKLDDCEQAIKESIASKQAYCASLVNLDKVSLYKYQIKNNAFDEQKQRLYEKKSSLSKEKRSLLDSQKRTKEDLQHVNKSIEKLSFAIKEHYFD
notes: source: E. coli BL21 (λDE3), purified (HisTrap HP, thrombin cleavage, second HisTrap HP, desalting)
- stoichiometry N [4]: 1 EscO per EscN hexamer
